In US10087443B2, “Compositions and methods for modulating neuronal excitability and motor behavior” (ICAHN SCHOOL OF MEDICINE AT MOUNT SINAI, priority 2013, dated 2018):

Tests used:
miR-128-2−/− mice = assay: Survival of miR-128-2-/- mice under anticonvulsant treatment (Kaplan-Meier survival curves); type: in vivo; conditions: sodium valproate 0.26% w/v in drinking water, oral, n=11
[1] = tested on: Dravet-syndrome mice (Scn1a or Gabrg2 deficient mice); assay: Ectopic miR-128 overexpression in Dravet-syndrome mouse models (Scn1a or Gabrg2 deficient mice); type: in vivo; conditions: supplied into neurons of the hippocampus or thalamus; Dravet-like syndrome mice
Description: The inventors of the instant disclosure ectopically overexpress miR-128 in mouse models of severe human generalized childhood epilepsy such as the Dravet-syndrome (Scn1a or Gabrg2 deficient mice) to establish the efficacy of miR-128 in averting seizures in these mice. Mice with a loss of Scna1 and Gabrg2 display spontaneous seizures and ataxia beginning in the fourth postnatal week followed by premature death from seizure-related cause. Applicants test the effects of miR-128 overexpression on seizure development and survival in three to four week old Dravet-syndrome mice. The ability of genetic miR-128 overexpression in postnatal forebrain neurons to protect mice against spontaneous seizure development is also tested. Secondly, Applicants test the seizure-suppressing ability of oligonucleotide or AAV-based miR-128 overexpression in different brain regions (striatum, temporal cortex, hippocampus, mediodorsal thalamus) to determine whether there are specific locations that can short-circuit brain-wide seizures due to local miR-128 overexpression. Ectopically supplied miR-128 into the neurons of the hippocam pus or thalamus protects mice suffering from Dravet-like syndrome against spontaneous recurrent seizures and premature death.

[2] = tested on: primary striatal neuron cultures; assay: Gene expression (TaqMan qRT-PCR) in BDNF-treated primary striatal neuron cultures; type: cell-based, mouse; conditions: 0.05 ng/ul BDNF, day 10 in vitro; 0, 2, 6 and 24 hours
Procedure: Primary striatal neuron cultures obtained from E18 mouse brain were treated on day 10 in vitro with 0.05 ng/ul brain-derived neurotrophic factor (BDNF) in water. RNA from cultures was prepared at 0, 2, 6 and 24 hours after stimulation and gene expression change were analyzed using the Tagman qRT-PCR assay. […] Data are shown as mean, error bars represent s.e.m., p-value was determined by 2-way ANOVA, FosB treatment 0.0014, time <0.0001. 124a treatment 0.1091, time 0.0861, Arpp21 treatment 0.0064, time 0.0190. miR-128-2 treatment 0.0160, time 0.2097.
Relative expression levels of mature miRNAs and mRNAs were measured by TaqMan assays using total extracted RNA from brain samples, according to manufacturer's protocol (Life Technologies, Carlsbad, Calif.). Purified RNA samples were assayed by qRT-PCR for relative gene expression using pre-designed TaqMan gene expression assays from Applied Biosystems (ABI) as recommended by the manufacture. The following pre-designed TaqMan gene expression assays from Applied Biosystems (ABI) were used: miR-128 (Assay ID 002216), sno135 (Assay ID 001230), miR-124a (Assay ID 001182), Fosb Mm00500401_m1, Fosl2 Mm00484442_m1, Arc Mm00479619_g1, JunB Mm04243546_s1, Darpp-32 Mm00454892_m1, Btg2 Mm00476162_m1, Gadd45g Mm01352550_g1, Dusp1 Mm00457274_g1, Nr4a1 Mm01300401_m1, Jun Mm00495062_s1, Actb Mm00607939_s1, Arpp-21 Mm00473630_m1 (exon spanning probe detects exons that are common to all Arpp-21 isoforms), Arpp21 Mm00473645_m1 (exon spanning probe that specifically detects the long TARPP-isoform of Arpp-21). Cycle counts for miRNA quantification were normalized to snoRNA135 or miR-124a as indicated, and cycle counts for mRNA quantification were normalized to Actb or Gapdh. […] Calculation of standard deviation (SDΔCt=(SDtarget2+SDref2)1/2) and error bars (RQ1=2^(−(ΔΔCt+SDΔΔCt)), and RQ2=2^(−(ΔΔCt−SDΔΔCt))) was performed according to ABI technical literature Part Number 4371095 Rev B.

CCCC(CCC)C(=O)O [valproic acid]
lethal impact of miR-128 deficiency (lifespan) (miR-128-2−/− mice): prevented

miR-128: microRNA, UCACAGUGAACCGGUCUCUUU (SEQ ID NO: 1) (listed as RNA, chemistry not fully specified)
spontaneous recurrent seizures and premature death [1]: protects

B1: BDNF: brain-derived neurotrophic factor, inducer of miR-128 expression (protein, UniProt P23560 19-247, looked up)
Neurotrophic factor BDNF …: APMKEANIRGQGGLAYPGVRTHGTLESVNGPKAGSRGLTSLADTFEHVIEELLDEDQKVRPNEENNKDADLYTSRVMLSSQVPLEPPLLFLLEEYKNYLDAANMSMRVRRHSDPARRGELSVCDSISEWVTAADKKTAVDMSGGTVTVLEKVPVSKGQLKQYFYETKCNPMGYTKEGCRGIDKRHWNSQCRTTQSYVRALTMDSKKRIGWRFIRIDTSCVCTLTIKRGR
expression of immediate early gene FosB [2]: strong but transient inducer | expression of miR-128 [2]: stable increase | expression of miR-128 host gene Arpp21 [2]: stable increase | expression of neuron-specific miRNA miR-124a [2]: no effect
